{"source": "patent US20160257757A1", "key": {"[1]": {"molecular_target": "full-length mouse GCGR (mouse) (UniProt Q61606)", "sequence (Q61606 27-485 limits assumed)": "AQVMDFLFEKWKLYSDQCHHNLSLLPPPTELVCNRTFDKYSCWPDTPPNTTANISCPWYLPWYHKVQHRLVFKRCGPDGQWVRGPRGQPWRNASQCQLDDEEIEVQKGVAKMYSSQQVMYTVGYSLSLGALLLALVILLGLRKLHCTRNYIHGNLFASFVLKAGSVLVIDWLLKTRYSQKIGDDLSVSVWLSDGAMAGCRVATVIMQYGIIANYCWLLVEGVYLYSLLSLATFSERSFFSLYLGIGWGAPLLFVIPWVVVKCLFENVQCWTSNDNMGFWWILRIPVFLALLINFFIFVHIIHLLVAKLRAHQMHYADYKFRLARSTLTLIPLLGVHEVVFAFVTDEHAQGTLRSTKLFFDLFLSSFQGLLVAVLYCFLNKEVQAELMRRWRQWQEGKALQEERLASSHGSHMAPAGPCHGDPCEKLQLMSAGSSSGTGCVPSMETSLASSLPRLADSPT", "test": "cell-based or functional assay"}, "[2]": {"molecular_target": "full-length rat GCGR transiently expressed on HEK293 reporter cells (rat) (UniProt P30082)", "sequence (P30082 27-485 limits assumed)": "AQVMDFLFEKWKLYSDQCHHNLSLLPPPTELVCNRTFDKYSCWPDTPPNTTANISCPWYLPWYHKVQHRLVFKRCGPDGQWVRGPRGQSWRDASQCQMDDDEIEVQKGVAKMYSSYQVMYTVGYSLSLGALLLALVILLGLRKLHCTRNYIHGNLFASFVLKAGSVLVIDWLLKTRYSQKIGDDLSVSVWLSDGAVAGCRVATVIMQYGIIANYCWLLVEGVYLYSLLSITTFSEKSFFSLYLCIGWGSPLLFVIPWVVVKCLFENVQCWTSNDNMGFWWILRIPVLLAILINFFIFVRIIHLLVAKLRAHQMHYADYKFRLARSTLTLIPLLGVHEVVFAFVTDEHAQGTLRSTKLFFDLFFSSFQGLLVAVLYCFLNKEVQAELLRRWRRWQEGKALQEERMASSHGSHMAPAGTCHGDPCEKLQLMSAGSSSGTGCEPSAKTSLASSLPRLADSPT", "test": "cell-based or functional assay"}}}
{"substance": "glucagon (from UniProt P01275 53-81) (ligand)", "values": [{"measurement": "EC50 of luciferase (cAMP/CRE reporter) stimulation in HEK293/GCGR cells", "setting": "[1]", "result": 83, "unit": "pM"}, {"measurement": "EC50 of luciferase (cAMP/CRE reporter) stimulation in HEK293/GCGR cells", "setting": "[2]", "result": 252, "unit": "pM"}]}
